Reference: patent US20160068605A1
Where two headings read alike, the source gives them in different places.

How the values were obtained:
[1] = target: IL3RA-PK (CD123 tagged with ProLink) in HEK293 IL3RA-PK/CSF2RB-EA cells (UniProt P26951)
[2] = target: IL3RA-PK (CD123 tagged with ProLink) in HEK293 IL3RA-PK/CSF2RB-EA cells (UniProt P26951); remark: listed apart in the source
[3] = target: cell-surface CD3 epsilon on primary cynomolgus T cells (cynomolgus monkey) (UniProt Q95LI5); assay: saturation binding by flow cytometry on cynomolgus monkey T cells
[4] = target: cell-surface CD3 epsilon on primary human T cells (human) (UniProt P07766); assay: saturation binding by flow cytometry on primary human T cells (Donor 10006)
Sequence of cell-surface CD3 epsilon on primary human T cells (human) (P07766 23-207): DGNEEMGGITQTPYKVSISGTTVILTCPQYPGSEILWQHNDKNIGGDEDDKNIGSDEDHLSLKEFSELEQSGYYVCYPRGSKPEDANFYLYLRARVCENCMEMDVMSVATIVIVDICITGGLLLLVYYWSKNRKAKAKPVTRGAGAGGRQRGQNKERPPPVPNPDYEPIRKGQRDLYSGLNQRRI

Sequence of cell-surface CD3 epsilon on primary cynomolgus T cells (cynomolgus monkey) (Q95LI5 22-198): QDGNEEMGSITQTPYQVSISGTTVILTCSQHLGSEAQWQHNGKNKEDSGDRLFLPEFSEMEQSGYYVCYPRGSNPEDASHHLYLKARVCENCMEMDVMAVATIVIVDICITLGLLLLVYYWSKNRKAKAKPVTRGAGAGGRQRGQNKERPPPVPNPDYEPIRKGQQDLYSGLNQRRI

EC50 (read off the curve): CD123/CD131 heteromerization (RLU) [1] [ng/mL]	EC50 (read off the curve): CD123/CD131 heteromerization (RLU) [2] [ng/mL]	Antigen binding sites/cell [3] [sites/cell]	Kd [3] [nM]	Ab binding sites/cell [4] [sites/cell]	Kd [4] [nM]	Substance
6	3	–	–	–	–	IL-3 (from UniProt P08700) (ligand)
–	–	55000	1.4	60000	4.2	SP34-2 (antibody)
